Experimental data reported in paper PMC11746035 (Frontiers in Immunology, 2024).

B1: BD56-595 N56 allelic variant (antibody, V domains shown)
VH: QITLKESGPTLVKPTQTLTLTCTFSGFSITTAGVGVGWIRQPPGKALEWLALIYWNGDRRYSPSLKNRVDITTDISKNQVVLTMTNMAPVDTATYYCAQHTIDMILDYWGQGTLVTVSS
VL: QSALTQPPSASGSPGQSVTISCTATSSDVGAYNYVSWYQQHPGKAPKLMIYEVNKRPSGVPDRFSGSKSGNTASLTVSGLQAEDEADYYCSSYTDNIVFGTGTRVTVL
notes: as the heavy chain of m12, with N56 in place of D56; numbers count on: IMGT unique numbering, excluding any gaps; as the light chain of m12; IgG1; also called N56 allele
B2: BD57-028 N56 allelic variant (antibody, V domains shown)
VH: QITLKESGPTLVKPTQTLTLTCTFSGFSLSASGEGMGWIRQPPGKALEWLALIYWNADERYSPSLRSRLTITKDTSKNQVVLKMTNMNPVDTATYYCAHHSITTVVDYWGQGMLVTVSS
VL: QSALTQPASVSGSPGQSITISCTGTISDVGAFNYVSWYQQHPGRAPKLIIYDVSTRPSGISIRFSGSKSGNTASLTISGLQPEDEADYYCSSYSHTSLVFGTGTKVTVL
notes: as the heavy chain of m8, with N56 in place of D56; numbers count on: IMGT unique numbering, excluding any gaps; as the light chain of m8; IgG1; also called N56 allele

Target: T1, SARS-CoV-2 BQ.1.1 RBD (SARS-CoV-2, Omicron BQ.1.1, L452R | K444T)
T1 construct: also called L452R RBD of BQ.1.1
Test: BLI; antibody (IgG1, 11 μg/mL) loaded on AHC2 biosensor to about 1.5 nm; RBD in solution, association 300 s, dissociation 600 s; PBS-TB (PBS, 0.02% v/v Tween-20, 0.1% w/v BSA); 25°C; 1,000 rpm; binding response less than 0.1 considered non-binding
Conditions: both partners purified

Row | Binder | fold increase in binding affinity against the D56 variant
1 | B1 | 57 fold
2 | B2 | 57 fold
